This is an account of results in the DeepSol protein solubility set.

The data set is described as follows: soluble on expression in E. coli; label from the status in PepcDB or PDB records.
Turning to “SGGRRSSWIKNWTLWKHFKDYFPIHLIKTQDLDPSHNYIFGFHPHGIMAVGAFGNFSVNYSDFKDLFPGFTSYLHVLPLWFWCPVFREYVMSVGLVSVSKKSVSYMVSKEGGGNISVIVLGGAKESLDAHPGKFTLFIRQRKGFVKIALTHGASLVPVVSFGENELFKQTDNPEGSWIRTVQNKLQKIMGFALPLFHARGVFQYNFGLMTYRKAIHTVVGRPIPVRQTLNPTQEQIEELHQTYMEELRKLFEEHKGKYGIPEHETLVLK”, the “soluble on expression in E. coli” value is reported as “soluble”. Turning to “SGIVVSPILIPENQRQPFPRDVGKVVDSDRPEGSKFRLTGKGVDQDPKGTFRINENTGSVSVTRTLDRETIATYQLYVETTDASGKTLEGPVPLEVIVID”, the “soluble on expression in E. coli” value is “soluble”. As for “SGNLLKVLTCTDLEQEPNFFLDFENAQPTEAERETWEEVDVVLKDALGILDELQAYKGAGQEIREAIQNPNDEALQDQAWAAVVPLVGKLKKFYEFSQRLEAALHSLLRALTSETYDDPTQHLEREQALAKQFAEILHFTLRFDELKMTNPAIQNDFSYYRRTLSRMRINNVPAEGENEVNNELANRISLFYADATPMLKTLSDGTTKFVSENKNLPIENTTDVLSTMASVCKVMLETPEYRSRFSSEETVSFCLRVMVGVIILYDYVHPVGAFAKSSKIDMKGCIKVLKDQPPNSVEGLLNALRYTTKHLNDESTTKTIKSMLQ”, the “soluble on expression in E. coli” value is “soluble”. In the case of “SGSDVRDLNALLPAVPSLGGGGGCALPVSGAAQWAPVLDFAPPGASAYGSLGGPAPPPAPPPPPPPPPHSFIKQEPSWGGAEPHEEQCLSAFTVHFSGQFTGTAGACRYGPFGPPPPSQASSGQARMFPNAPYLPSCLESQPAIRNQGYSTVTFDGTPSYGHTPSHHAAQFPNHSFKHEDPMGQQGSLGEQQYSVPPPVYGCHTPTDSCTGSQALLLRTPYSSDNLYQMTSQLECMTWNQMNLGATLKG” it was “soluble”; in that of “SHPGIDSMSSNINCENNPFSFYGNPHKSVIIHGKEGTELLKEKGEDCKTFENSQQYFLWCCVQQQMYHYQLLSTAFASYGFEPPRIPGAFPHHIPPIFNGSMKCLRDREVFNQSGFLYVNVSPDTYQETRQEAPVEQRNQWSEKSKTTSKKSICKVLFECTNSSLLENAENRSIFSKQGSGSHVGENSKNPSEDSGQSGRLSQNATAEHNVLEKHLQEEYQMAKNTVNESFDSLKECSAASVIKGSYLLSQVVHIPEDAIEPEIPPDLQGPGGHVFLRMLSRSWRQYKRALEHNE”, “soluble”. The entry for “SIEFSTAITRQIVLDTETTGMNQIGAHYEGHKIIEIGAVEVVNRRLTGNNFHVYLKPDRLVDPEAFGVHGIADEFLLDKPTFAEVADEFMDYIRGAELVIHNAAFDIGFMDYEFSLLKRDIPKTNTFCKVTDSLAVARKMFPGKRNSLDALCARYEIDNSKRTLHGALLDAQILAEVYLAMTGGQTSMATRESG” is “soluble”; for “SIRFVIDREECFSHKAEYEGDTLHVSFVVIKSDSQWHFNEDGVDLVIHGPTGEQIHDFREQISAKHDFVVQKKGVYRFCFTNKSPYHETIDFDVQLGHFAYYDQHAKDEHFTPLMEQISKLEEALYNIQFEQHWLEAQTDRQAIVNENMSKRAVHKALFESFALIGASFLQVYLLRRLFERKLGMSRV” it is “soluble”. For the sequence “SITKPQNKSAKLVDGELLVKASVESFGLEDEKYWFLVCCELSNGKTRQLKRYYQDFYDLQVQLLDAFPAEAGKLRDAGGQWSKRIMPYIPGPVPYVTNSITKKRKEDLNIYVADLVNLPDYISRSEMVHSLFVVLNNGFDREFERDENGSHHHHHH”, the “soluble on expression in E. coli” value is recorded as “soluble”. In the case of “SKGFIDQYPNYSVGLGNLRSLKGDTCNLANDVLVETNTNESFLTPLTGTLGDSLTNDDVRGFDPNRISPWAFTPENRPEALGAANSTGDGSDTAAADSDASNTAAGADSDGSAAKADAASDNQEEAAKKKETHRADQGVNGSHSRLPFNLDYRTVPVLGSWTDGKQEIAEATSSWFKLPKANDNTPLVVVSAAGSIKHKDVNGIVENGQKIVLEYGRSNTGGSLGKAEKLGELDLLDSGIDSTWRNLRIPLSDIPDDADVIRIHAKDTSLDPDEWIAFTPPRVPTMDTLANQFPASTPGLLDWAVPLQFPCQRTFNHYAGVAEIPEYRISADAKGKQSGMNFQDFAGGGVTGIAETINSSYELPSYSKNDWVRDWGSIKMYKLRTNSKGEAPDVATVDTETITRSGLWYPGRMNIDTKVTKN”, the “soluble on expression in E. coli” value was “not soluble”. Regarding “SKKEHVLHCQFSAWYPFFRGVTIKSVILPLPQNVKDYLLDDGTLVVSGRDDPPTHSQPDSDDEAEEIQWSDDENTATLTAPEFPEFATKVQEAINSLGGSVFPKLNWSAPRDAYWIAMNSSLKCKTLSDIFLLFKSSDFITRDFTQPFIHCTDDSPDPCIEYELVLRKWCELIPGAEFRCFVKENKLIGISQRDYTQYYDHISKQKEEIRRCIQDFFKKHIQYKFLDEDFVFDIYRDSRGKVWLIDFNPFGEVTDSLLFTWEELISENNLNGDFSEVDAQEQDSPAFRCTNSEVTVQPSPYLSYRLPKDFVDLSTGEDAHKLIDFLKLKRNQQEDD”, the “soluble on expression in E. coli” value is on record as “soluble”. The entry for “SKKQLDMSQKKTLTIDSELRFDELSLDTVRDFEKLAPFGMDNKKPVFLLKDFKVSQARVMGQNGAHLKLKLEQDGQALDLVAFNMGSQLQEFQQAQHLELAVTLSVNQWNGATTLQ” is “not soluble”; for “SKLNQNTMLVGKKVVLVPYTSEHVPRYHEWMKSEELRHLTASEQLTLQQEYEMQCSWCEDEDKCTFIVLDAEKWQAQPRPPEESCMVGDVNLFLTDLEDPTLGEIEVMIAEPSYRRQGLGTEASLLIMSYGVTKLGLTKFEAKIGQENEPSIRMFQKLHFKQVAMSNVFQEVTLRLAVSEPERKWILEQTSHMEERPYRTRKAEPVTATLSEQKSWNCPLPRPDGCMGDTSAVSSVCARLS” it is “soluble”.

Turning to “SKLYDINNEIFEDLGAEKRELIQPNDVPQLLKDAIVSVEDRRFYKHIGVDPIRIIGSALSNVKNGGLQGGSTLTQQLIKLSYFSTKESDQTLKRKAQEAWMAVRLEREKSKEEILTYYINKVYMANGFYGMETAAENYYGKHLSELDLPQTALLAGMPQAPNSYDPYTKP”, the “soluble on expression in E. coli” value is listed as “not soluble”. In the case of “SKQNPLKRKRNDEITEEKVVLLMAMHKEDDEHQHTKPSPPSWEILCLVGPYMDPESLAVASCVSTTWSKCFSSEDLWKSLPATRHSIFAKAITKEGAKPAWLSYKRLISEAESAAKRRRNNQPAEPKISLSDLVFIVHVSAGSKEAVVVKQGKDLVFGSNERFQIEADVRDSGFTADMKDVSMSWNVVLRNYERMFLMSETVIKSLDSMIGWFTDELPGTKNRYCDGSNLVGEVKPSFNEDVLDKVVFAIADSRNWKSLFVDDVLRYLQCFLVD” it was “soluble”; in that of “SKSGAQTPKSPPEHYVQETPLMFSRCTSVSSLDSFESRSIASSVQSEPCSGMVSGIISPSDLPDSPGQTMPPSRSKTPPPPPQTAQTKREVPKNKAPTAEKRESGPKQAAVNAAVQRVQVLPDADTLLHFATESTPDGFSCSSSLSALSLDEPFIQKDVELRIMPPVQENDNGNETESE”, “soluble”; in that of “SKVTSLTACLVDQSLRLDCRHENTSSSPIQYEFSLTRETKKHVLFGTVGVPEHTYRSRTNFTSKYNMKVLYLSAFTSKDEGTYTCALHHSGHSPPISSQNVTVLRDKLVKC”, “soluble”. Turning to “SKYGLQDSDEEEEEHPSKTSTKKLKTAPLPPASQTTPLQMALNGKPAPPPQVEKKGQLEHHHHH”, the “soluble on expression in E. coli” value is “soluble”. With “SLADHMLKRACEWMRFLGYTVYYPECHYDNDILKTCIEKKLVLLTRDIELYKRYALSVYIDSVNINEQIIQITRQFPPDPGKFMTKCPDCGSDLILMRSNGLDIPDKIKKSFSMVRYCNKCSKAFWPGTHYIKIIEKINRLLK”, the “soluble on expression in E. coli” value is recorded as “not soluble”. For the sequence “SLARMSRRSRGAAGAQSVVKPETPMAQVLHQFNYCPCQYLEQNWIVPKQPWLLNLDGWRDNPNFNLWCLEEWALAPVPETAFNKPHHSLALLPPDALSTLMLTIGGALHSFAMRQVVLKKPKQCLNNVFGLDIARFLIQQGPMLLSQWPKGWQKALPDVMKEDEVERHMLKQGYAWMKFILASSSHDILLRWQFKLDQSLSQVKENTSWLVEEQRDLAYRLTKKIAKQVIPQWFHLLK”, the “soluble on expression in E. coli” value is “soluble”. Take “SLDDMTEFKNMPKVELHAHLSGSLSPETIKLIMESDETRAEEIMKKYKLEKPENMTGVFDCFPVIHAILRKPEAIRIAIRQTIKEFEEDNCVYLELRTSPKETDFMTYEDYLQVCIESFEAAKHEFPRIKTFLIVSLDRRMPFETAAHILGLIGEAQQRTNVIVGVELSGDPHLDGRRLLKLFVAARRFHGLGITIHLAEVLQNMADVEDYLNLRPDRIGHGTFLHTDPYTEYLTNKYKIPLEICLSSNVYSKTTTNYRNSHFNYWRKRGVPVFICTDDKGVIPGATLTEEYYKAAITFDLSTEELIGINQDALLNSFAYKYNVTDLTETFRKINNNVLD”: the “soluble on expression in E. coli” value is “soluble”. Consider “SLDEITAVVRTAARELVSADGATFVLRENGNCFYADEDAIAPLWKGLRFPLERCISGWVMLNRQAAVIEDIYQDQRIPVEAYRPTFVQSLAMVPIRGEDPIGAIGTYWARRH”, for which the “soluble on expression in E. coli” value is “not soluble”. In the case of “SLDMQHRIRQLFQASIETKQQALEVLPPYIEQASLVMVNALLNEGKILSCGNGGSAGDAQHFSSELLNRFERERPSLPAVALTTDSSTITSIANDYSYNEVFSKQIRALGQPGDVLLAISTSGNSANVIQAIQAAHDREMLVVALTGRDGGGMASLLLPEDVEIRVPSKITARIQEVHLLAIHCLCDLIDRQLFGSEEEG”, the “soluble on expression in E. coli” value is “soluble”. With “SLENLATAPVNQIQETISDNCVVIFSKTSCSYCTMAKKLFHDMNVNYKVVELDLLEYGNQFQDALYKMTGERTVPRIFVNGTFIGGATDTHRLHKEGKLLPLVHQCYLKKSKRKEFQ”, the “soluble on expression in E. coli” value is “soluble”. The entry for “SLEYNLTTKEVEMVNVTASWDEGIGELFEKVKQNDSERKMANGDDGLFFSNFSLHVTPVLKNISFKLEKGELLAIAGSTGSGKSSLLMMIMGELEPSDGKIKHSGRISYSPQVPWIMPGTIKDNIIFGLSYDEYRYTSVVNACQLEEDITVFPNKDKTVLGDGGITLSGGQRARISLARALYKDADLYLLDSPFSHLDVTTEKDIFESCLCKLMVNKTRILVTSKLEHLKKADKILLLHEGHCYFYGTFSELQGEKPDFSSQLLGSVHFDSFSAERRNSILTETFRRCSVSSGDGAGLGSEG” is “soluble”.

With “SLGTLPPELQNTCVARGKLPLLLDLDNTLLHAQAASATGCDVRLQDWIDPYGEPELYRFELPCNRKTYYMKLRPHLRTFLKKLEPFYEMSVYTNATQEYADIVIAILDGNRQLFQDRIVARDSGFRGEASENKAVRRLYEGMDKRCIVAFDDRQNIWTDLPLTHVVKAQHYDFFDSHKTELNAYYPPLSNGIEGMTAPDVLGNRQNED”, the “soluble on expression in E. coli” value is “soluble”. “SLILHAQAKHGKPGLPWLVFLHGFSGDCHEWQEVGEAFADYSRLYVDLPGHGGSAAISVDGFDDVTDLLRKTLVSYNILDFWLVGYSLGGRVAMMAACQGLAGLCGVIVEGGHPGLQNAEQRAERQRSDRQWVQRFLTEPLTAVFADWYQQPVFASLNDDQRRELVALRSNNNGATLAAMLEATSLAVQPDLRANLSARTFAFYYLCGERDSKFRALAAELAADCHVIPRAGHNAHRENPAGVIASLAQILRF”: the “soluble on expression in E. coli” value was “soluble”.

On to “SLINNLSTHSYWPNRGQLEVQGLTVKYTEAGRAVLNDISFSVDGGQSVGLLGRTGSGKSTLLSALLGLNYTEGEMFIDGVSSSSMPLEAWRKAFGVVPQKVFILTGTFRMNLDPYGRYSDDELWRVAEEVGLKSVIEQFPDKLDFELKDGGSVLSNGHKQLMCLARSILSKARILLLDEPSSYLDPITLQVLRKTLKQSFSGCTVILSEHKVEPLLECDSFLMIEKSSVKSYDSIQKLMNEMSDLKQAISPAD”, for which the “soluble on expression in E. coli” value is reported as “not soluble”.
